B1: GST-tagged IGF2BP2, Q9Y6M1 1-599 (natural protein)
chain: MMNKLYIGNLSPAVTADDLRQLFGDRKLPLAGQVLLKSGYAFVDYPDQNWAIRAIETLSGKVELHGKIMEVDYSVSKKLRSRKIQIRNIPPHLQWEVLDGLLAQYGTVENVEQVNTDTETAVVNVTYATREEAKIAMEKLSGHQFENYSFKISYIPDEEVSSPSPPQRAQRGDHSSREQGHAPGGTSQARQIDFPLRILVPTQFVGAIIGKEGLTIKNITKQTQSRVDIHRKENSGAAEKPVTIHATPEGTSEACRMILEIMQKEADETKLAEEIPLKILAHNGLVGRLIGKEGRNLKKIEHETGTKITISSLQDLSIYNPERTITVKGTVEACASAEIEIMKKLREAFENDMLAVNQQANLIPGLNLSALGIFSTGLSVLSPPAGPRGAPPAAPYHPFTTHSGYFSSLYPHHQFGPFPHHHSYPEQEIVNLFIPTQAVGAIIGKKGAHIKQLARFAGASIKIAPAEGPDVSERMVIITGPPEAQFKAQGRIFGKLKEENFFNPKEEVKLEAHIRVPSSTAGRVIGKGGKTVNELQNLTSAEVIVPRDQTPDENEEVIVRIIGHFFASQTAQRKIREIVQQVKQQEQKYPQGVASQRSK
B2: insulin-like growth factor 2 mRNA-binding protein 2 (IGF2BP2), endogenous, Q9Y6M1 1-599 (natural protein)
chain: B1 chain

Columns and labels:
[1] = target: GST-tagged IGF2BP2 (human), Q9Y6M1; test: cross-linking; cell suspension with 1.25 mM DSS, 30 min, 37 °C; nondenaturing lysis and PAGE, Western blot; monomer 65 kDa, homodimer 130 kDa; HEK293T (GST-IGF2BP2) and OVCAR3/CAOV3 (endogenous, with Ct-OATP1B3 or IGF2BP2 knockdown or overexpression); conditions: remark: other sources report otherwise
[2] = target: insulin-like growth factor 2 mRNA-binding protein 2 (IGF2BP2), endogenous (human (endogenous in CAOV3 and OVCAR3)), Q9Y6M1; test: as above; conditions: remark: other sources report otherwise

Row | Binder | stoichiometry N [1] | stoichiometry N [2]
1 | B1 | 2 | 
2 | B2 |  | 2

Source: PMC9206684
